Here are results for five sequences from the supplement of paper PMC5998384.

Data set [1] deals with HeLa Kyoto. The data set is described as follows: melting temperature (median over replicates), in situ; higher = more thermally stable.
In data set [2] the test system is HeLa Kyoto. As to the kind of experiment: solubility in G1/S (NP-40 vs SDS abundance) (log2 ratio); higher = more soluble. The following applies: cell cycle stage: G1/S.
For data set [3], the system named is HeLa Kyoto. As to the kind of experiment: thermal stability score vs G1/S (z-score of summed log2 fold changes over temperatures); higher = more thermally stable than in G1/S.
Data set [4] has as its system HeLa Kyoto. As to the kind of experiment: solubility change mitosis vs G1/S (difference of NP-40 vs SDS log2 ratios) (log2 ratio difference); higher = more soluble in mitosis.
[5] abbreviates: cell cycle stage: early G1 (4.5 h after nocodazole release).
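Throughout, for melting temperature (median over replicates), in situ: HeLa Kyoto cells synchronized by double thymidine or nocodazole block, proteins quantified by TMT10plex mass spectrometry, three independent biological replicates.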
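Throughout, for solubility change mitosis vs G1/S (difference of NP-40 vs SDS log2 ratios): synchronized HeLa Kyoto cells (double thymidine block for G1/S, nocodazole release for mitosis), protein amounts in NP-40 versus SDS lysates quantified by mass spectrometry, three biological replicates.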
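Throughout, for solubility in G1/S (NP-40 vs SDS abundance): HeLa Kyoto cells arrested at G1/S by double thymidine block, proteins quantified by TMT10plex mass spectrometry in mild NP-40 versus SDS extracts, three biological replicates.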
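Throughout, for thermal stability score vs G1/S (z-score of summed log2 fold changes over temperatures): synchronized HeLa Kyoto cells, proteins quantified by TMT10plex mass spectrometry, three biological replicates, mitosis taken 0.5 h after nocodazole release, G1/S directly after double thymidine block.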

“MSYDRAITVFSPDGHLFQVEYAQEAVKKGSTAVGVRGRDIVVLGVEKKSVAKLQDERTVRKICALDDNVCMAFAGLTADARIVINRARVECQSHRLTVEDPVTVEYITRYIASLKQRYTQSNGRRPFGISALIVGFDFDGTPRLYQTDPSGTYHAWKANAIGRGAKSVREFLEKNYTDEAIETDDLTIKLVIKALLEVVQSGGKNIELAVMRRDQSLKILNPEEIEKYVAEIEKEKEENEKKKQKKAS [PSMA7]”: the melting temperature in the data set on HeLa Kyoto [1] (cell cycle stage: G1/S) came out at 59 °C; in the data set with HeLa Kyoto [1] (cell cycle stage: mitosis), 62.2 °C. The “solubility in G1/S (log2)” value in the data set on HeLa Kyoto [2] came to 0.332. Further, the values for the thermal stability score in the data set with HeLa Kyoto [3] (setting [5]) and in the data set on HeLa Kyoto [3] (cell cycle stage: mitosis) were -1.05 and -2.15, respectively. The “solubility change mitosis (log2)” value in the data set on HeLa Kyoto [4] was -0.0151.

On to “MSYTGFVQGSETTLQSTYSDTSAQPTCDYGYGTWNSGTNRGYEGYGYGYGYGQDNTTNYGYGMATSHSWEMPSSDTNANTSASGSASADSVLSRINQRLDMVPHLETDMMQGGVYGSGGERYDSYESCDSRAVLSERDLYRSGYDYSELDPEMEMAYEGQYDAYRDQFRMRGNDTFGPRAQGWARDARSGRPMASGYGRMWEDPMGARGQCMSGASRLPSLFSQNIIPEYGMFQGMRGGGAFPGGSRFGFGFGNGMKQMRRTWKTWTTADFRTKKKKRKQGGSPDEPDSKATRTDCSDNSDSDNDEGTEGEATEGLEGTEAVEKGSRVDGEDEEGKEDGREEGKEDPEKGALTTQDENGQTKRKLQAGKKSQDKQKKRQRDRMVERIQFVCSLCKYRTFYEDEMASHLDSKFHKEHFKYVGTKLPKQTADFLQEYVTNKTKKTEELRKTVEDLDGLIQQIYRDQDLTQEIAMEHFVKKVEAAHCAACDLFIPMQFGIIQKHLKTMDHNRNRRLMMEQSKKSSLMVARSILNNKLISKKLERYLKGENPFTDSPEEEKEQEEAEGGALDEGAQGEAAGISEGAEGVPAQPPVPPEPAPGAVSPPPPPPPEEEEEGAVPLLGGALQRQIRGIPGLDVEDDEEGGGGAP [AKAP8L]”, for which the results for the melting temperature in the data set on HeLa Kyoto [1] (cell cycle stage: G1/S) and in the data set with HeLa Kyoto [1] (cell cycle stage: mitosis) were 47.1 °C and 48.8 °C, respectively. Further, in the data set with HeLa Kyoto [2], the “solubility in G1/S (log2)” value is -0.123. Further, the thermal stability score in the data set on HeLa Kyoto [3] (setting [5]) stood at 0.782; with HeLa Kyoto [3] (cell cycle stage: mitosis), 1.54. Besides, in the data set on HeLa Kyoto [4], the “solubility change mitosis (log2)” value was 0.0856.

Consider “MTAAENVCYTLINVPMDSEPPSEISLKNDLEKGDVKSKTEALKKVIIMILNGEKLPGLLMTIIRFVLPLQDHTIKKLLLVFWEIVPKTTPDGRLLHEMILVCDAYRKDLQHPNEFIRGSTLRFLCKLKEAELLEPLMPAIRACLEHRHSYVRRNAVLAIYTIYRNFEHLIPDAPELIHDFLVNEKDASCKRNAFMMLIHADQDRALDYLSTCIDQVQTFGDILQLVIVELIYKVCHANPSERARFIRCIYNLLQSSSPAVKYEAAGTLVTLSSAPTAIKAAAQCYIDLIIKESDNNVKLIVLDRLIELKEHPAHERVLQDLVMDILRVLSTPDLEVRKKTLQLALDLVSSRNVEELVIVLKKEVIKTNNVSEHEDTDKYRQLLVRTLHSCSVRFPDMAANVIPVLMEFLSDNNEAAAADVLEFVREAIQRFDNLRMLIVEKMLEVFHAIKSVKIYRGALWILGEYCSTKEDIQSVMTEIRRSLGEIPIVESEIKKEAGELKPEEEITVGPVQKLVTEMGTYATQSALSSSRPTKKEEDRPPLRGFLLDGDFFVAASLATTLTKIALRYVALVQEKKKQNSFVAEAMLLMATILHLGKSSLPKKPITDDDVDRISLCLKVLSECSPLMNDIFNKECRQSLSHMLSAKLEEEKLSQKKESEKRNVTVQPDDPISFMQLTAKNEMNCKEDQFQLSLLAAMGNTQRKEAADPLASKLNKVTQLTGFSDPVYAEAYVHVNQYDIVLDVLVVNQTSDTLQNCTLELATLGDLKLVEKPSPLTLAPHDFANIKANVKVASTENGIIFGNIVYDVSGAASDRNCVVLSDIHIDIMDYIQPATCTDAEFRQMWAEFEWENKVTVNTNMVDLNDYLQHILKSTNMKCLTPEKALSGYCGFMAANLYARSIFGEDALANVSIEKPIHQGPDAAVTGHIRIRAKSQGMALSLGDKINLSQKKTSI [COPB1]”, for which the figures for the melting temperature in the data set on HeLa Kyoto [1] (cell cycle stage: G1/S) and in the data set with HeLa Kyoto [1] (cell cycle stage: mitosis) were 51.8 °C and 51.7 °C, respectively. The “solubility in G1/S (log2)” value in the data set with HeLa Kyoto [2] is -0.149. In addition, the thermal stability score with HeLa Kyoto [3] (setting [5]) was found to be 0.105; in the data set on HeLa Kyoto [3] (cell cycle stage: mitosis), 1.39. The “solubility change mitosis (log2)” value in the data set with HeLa Kyoto [4] is -0.197.

In the case of “MTAELQQDDAAGAADGHGSSCQMLLNQLREITGIQDPSFLHEALKASNGDITQAVSLLTDERVKEPSQDTVATEPSEVEGSAANKEVLAKVIDLTHDNKDDLQAAIALSLLESPKIQADGRDLNRMHEATSAETKRSKRKRCEVWGENPNPNDWRRVDGWPVGLKNVGNTCWFSAVIQSLFQLPEFRRLVLSYSLPQNVLENCRSHTEKRNIMFMQELQYLFALMMGSNRKFVDPSAALDLLKGAFRSSEEQQQDVSEFTHKLLDWLEDAFQLAVNVNSPRNKSENPMVQLFYGTFLTEGVREGKPFCNNETFGQYPLQVNGYRNLDECLEGAMVEGDVELLPSDHSVKYGQERWFTKLPPVLTFELSRFEFNQSLGQPEKIHNKLEFPQIIYMDRYMYRSKELIRNKRECIRKLKEEIKILQQKLERYVKYGSGPARFPLPDMLKYVIEFASTKPASESCPPESDTHMTLPLSSVHCSVSDQTSKESTSTESSSQDVESTFSSPEDSLPKSKPLTSSRSSMEMPSQPAPRTVTDEEINFVKTCLQRWRSEIEQDIQDLKTCIASTTQTIEQMYCDPLLRQVPYRLHAVLVHEGQANAGHYWAYIYNQPRQSWLKYNDISVTESSWEEVERDSYGGLRNVSAYCLMYINDKLPYFNAEAAPTESDQMSEVEALSVELKHYIQEDNWRFEQEVEEWEEEQSCKIPQMESSTNSSSQDYSTSQEPSVASSHGVRCLSSEHAVIVKEQTAQAIANTARAYEKSGVEAALSEVMLSPAMQGVILAIAKARQTFDRDGSEAGLIKAFHEEYSRLYQLAKETPTSHSDPRLQHVLVYFFQNEAPKRVVERTLLEQFADKNLSYDERSISIMKVAQAKLKEIGPDDMNMEEYKKWHEDYSLFRKVSVYLLTGLELYQKGKYQEALSYLVYAYQSNAALLMKGPRRGVKESVIALYRRKCLLELNAKAASLFETNDDHSVTEGINVMNELIIPCIHLIINNDISKDDLDAIEVMRNHWCSYLGQDIAENLQLCLGEFLPRLLDPSAEIIVLKEPPTIRPNSPYDLCSRFAAVMESIQGVSTVTVK [USP28]”, the values for the melting temperature in the data set on HeLa Kyoto [1] (cell cycle stage: G1/S) and in the data set on HeLa Kyoto [1] (cell cycle stage: mitosis) were 48 °C and 49.4 °C, respectively. In addition, the “solubility in G1/S (log2)” value in the data set on HeLa Kyoto [2] was 0.0518. The thermal stability score in the data set with HeLa Kyoto [3] (setting [5]) was found to be 0.432; with HeLa Kyoto [3] (cell cycle stage: mitosis) it was 0.537. In the data set with HeLa Kyoto [4], the “solubility change mitosis (log2)” value was -0.0214.

Turning to “MTAPCSQPAQLPGRRQLGLVPFPPPPPRTPLLWLLLLLLAAVAPARGWESGDLELFDLVEEVQLNFYQFLGVQQDASSADIRKAYRKLSLTLHPDKNKDENAETQFRQLVAIYEVLKDDERRQRYDDILINGLPDWRQPVFYYRRVRKMSNAELALLLFIILTVGHYAVVWSIYLEKQLDELLSRKKREKKKKTGSKSVDVSKLGASEKNERLLMKPQWHDLLPCKLGIWFCLTLKALPHLIQDAGQFYAKYKETRLKEKEDALTRTELETLQKQKKVKKPKPEFPVYTPLETTYIQSYDHGTSIEEIEEQMDDWLENRNRTQKKQAPEWTEEDLSQLTRSMVKFPGGTPGRWEKIAHELGRSVTDVTTKAKQLKDSVTCSPGMVRLSELKSTVQNSRPIKTATTLPDDMITQREDAEGVAAEEEQEGDSGEQETGATDARPRRRKPARLLEATAKPEPEEKSRAKRQKDFDIAEQNESSDEESLRKERARSAEEPWTQNQQKLLELALQQYPRGSSDRWDKIARCVPSKSKEDCIARYKLLVELVQKKKQAKS [DNAJC1]”, the melting temperature with HeLa Kyoto [1] (cell cycle stage: G1/S) and in the data set on HeLa Kyoto [1] (cell cycle stage: mitosis) was 52.8 °C in each case. Further, in the data set with HeLa Kyoto [2], the “solubility in G1/S (log2)” value came out at 0.161. Moreover, the thermal stability score with HeLa Kyoto [3] (setting [5]) and in the data set on HeLa Kyoto [3] (cell cycle stage: mitosis) was 1.18 throughout. The “solubility change mitosis (log2)” value in the data set on HeLa Kyoto [4] was -0.0698.
